B1: Protein C-ets-1, residues 55 to 135; numbered along this chain, P14921 (parent)
chain: GFTKEQQRLGIPKDPRQWTETHVRDWVMWAVNEFSLKGVDFQKFCMNGAALCALGKDCFLELAPDFVGDILWEHLEILQKE

± gives the uncertainty stated by the source.

Variants of B1 are the subject of the data set. In words: abundance fitness (aPCA) (normalised: wild type 0, dead -1); higher = more abundant; growth selection in yeast, the domain comes from the species named. The conditions noted are these: Homo sapiens.
With GFTKEYQRLGIPKDPRQWTETHVRDWVMWAVNEFSLKGVDFQKFCMNGAALCALGKDCFLELAPDFVGDILWEHLEILQKE, the abundance fitness was -0.058 ± 0.078.

Consider GFTKEQQRLGIPKDPRQWTETHVRDWVMWAVNEFSLKGVDFQKFCMNGAALCALGKDCFLELAPLFVGDILWEHLEILQKE, for which the abundance fitness was -0.09 ± 0.033.

As for GFTKEQQRLGIPKDPRQWTETHVRDWVMWAVNEFSLKGVDFQKFCMNGAALCALGHDCFLELAPDFVGDILWEHLEILQKE, the abundance fitness was -0.033 ± 0.082.

GFTKEQQRLGIPKDPRQWTETHVRDWVMWAVNEFSLKGVDFQKFCMNGAALCALGKDDFLELAPDFVGDILWEHLEILQKE: the abundance fitness worked out at 0.056 ± 0.07.

Regarding GFTKEQQRLGIPKDPRQWTETHVRDWVMWAVNEFSLKGVDFQKFCMNIAALCALGKDCFLELAPDFVGDILWEHLEILQKE, the abundance fitness was -1.03 ± 0.29.

Take GFTKEQQRLGIPKDPRQWTETHVRDWVMWAVNEFSLKGVDFQKFCMNGAALCALGKDCFLELAPDFVGMILWEHLEILQKE: the abundance fitness is -0.055 ± 0.065.

Consider GFTKEQQRLGIPKDPRQWTETHVRDWVMWAVNEFSLKGVDFQKFCMNGAALCALGKDCFLELAPDFVGCILWEHLEILQKE, for which the abundance fitness was -0.167 ± 0.063.

Regarding GFTKEQQRLGIPKDPRQWPETHVRDWVMWAVNEFSLKGVDFQKFCMNGAALCALGKDCFLELAPDFVGDILWEHLEILQKE, the abundance fitness was -0.936 ± 0.091.

With GFTKEQQRLGIPKDPRQWLETHVRDWVMWAVNEFSLKGVDFQKFCMNGAALCALGKDCFLELAPDFVGDILWEHLEILQKE, the abundance fitness was -0.376 ± 0.038.

As to GFTKEQQRLGIPKDPRQWTETHVRDWVMWAVNEFSLKGVDFQKFCMNGAALCALGKDCFLELAPDFVGDILLEHLEILQKE, the abundance fitness was -0.316 ± 0.033.

Consider GFTKEQQRLGIPKDPRQWTETHYRDWVMWAVNEFSLKGVDFQKFCMNGAALCALGKDCFLELAPDFVGDILWEHLEILQKE, for which the abundance fitness is -0.955 ± 0.2.

Regarding GFTKEQQRLGIPKDPRQWTETHLRDWVMWAVNEFSLKGVDFQKFCMNGAALCALGKDCFLELAPDFVGDILWEHLEILQKE, the abundance fitness was -0.728 ± 0.06.

For GFTKEQQRLGIPKDPRQWTETHWRDWVMWAVNEFSLKGVDFQKFCMNGAALCALGKDCFLELAPDFVGDILWEHLEILQKE, the abundance fitness is -0.822 ± 0.1.

GFTKEQQRLGIPKDPRQWTETHKRDWVMWAVNEFSLKGVDFQKFCMNGAALCALGKDCFLELAPDFVGDILWEHLEILQKE: the abundance fitness was -0.904 ± 0.2.

For GFTKEQQRLGIPKDPRQWTETHVRDWVMWAVNEFSLKGVDFQKFCYNGAALCALGKDCFLELAPDFVGDILWEHLEILQKE, the abundance fitness was -0.203 ± 0.083.

Consider GFTKEQQRLGIPKDPRQWTETHVRDWVMWAVNEFSLKGVDFQKACMNGAALCALGKDCFLELAPDFVGDILWEHLEILQKE, for which the abundance fitness was -0.769 ± 0.065.

Regarding GFTKEQQRLGIPKDPRQWTETHVRDWVMWAVNEFSLKGVDFQKNCMNGAALCALGKDCFLELAPDFVGDILWEHLEILQKE, the abundance fitness was -1.01 ± 0.47.

In the case of GFTKEQQRLGIPKDPRQWTETHVRDWVMWAVNEFSLKGVDFQKFCMNGAALCALGKDCFLELASDFVGDILWEHLEILQKE, the abundance fitness is -0.202 ± 0.045.

In the case of GFTKEQQRLGIPKDPRQWTETHVRDWVMWAVNEFSLKGVDFQKFCMNGRALCALGKDCFLELAPDFVGDILWEHLEILQKE, the abundance fitness was -0.013 ± 0.02.

Take GFTKEQQRLGIPKDPRQWTETHVRDWVMWAVNEFSLKGVDFQKFCMNGVALCALGKDCFLELAPDFVGDILWEHLEILQKE: the abundance fitness was -0.162 ± 0.023.

As for GFTKEQQVLGIPKDPRQWTETHVRDWVMWAVNEFSLKGVDFQKFCMNGAALCALGKDCFLELAPDFVGDILWEHLEILQKE, the abundance fitness is -0.122 ± 0.031.

Turning to GFTKEQQILGIPKDPRQWTETHVRDWVMWAVNEFSLKGVDFQKFCMNGAALCALGKDCFLELAPDFVGDILWEHLEILQKE, the abundance fitness was -0.17 ± 0.12.

Consider GFTKEQQDLGIPKDPRQWTETHVRDWVMWAVNEFSLKGVDFQKFCMNGAALCALGKDCFLELAPDFVGDILWEHLEILQKE, for which the abundance fitness was -0.093 ± 0.066.

Consider GFTKEQQRLGIPKDPRQWTETHVRDWVMWAVNEFSLKGVDFQKFCMNGAALCALGKDCFLELMPDFVGDILWEHLEILQKE, for which the abundance fitness was -0.115 ± 0.059.

With GFTKEQQRLGIPKDPRQWTETHVRDWVMWAVNEFSLKGVDFQKFCMNGAALCALGKDCFLELAPDIVGDILWEHLEILQKE, the abundance fitness turned out to be 0.021 ± 0.063.

Consider GFTKEQQRLGIPKDPRQWTETHVRDWVMWAVNEFSLKGVDFQKFCMNGAALCALGKDCFLELAPDKVGDILWEHLEILQKE, for which the abundance fitness was determined as 0.053 ± 0.076.

Take GFTKEQQRLGIPKDPRQWTETHVRDWVMWAVNEISLKGVDFQKFCMNGAALCALGKDCFLELAPDFVGDILWEHLEILQKE: the abundance fitness was -0.9 ± 0.14.

As for GFTKEQQRLGIPKDPRQWTETHVQDWVMWAVNEFSLKGVDFQKFCMNGAALCALGKDCFLELAPDFVGDILWEHLEILQKE, the abundance fitness is -0.039 ± 0.038.

Consider GFTKEQQRLGIPKDPRQWTETHVRDWVMWAVNEFSRKGVDFQKFCMNGAALCALGKDCFLELAPDFVGDILWEHLEILQKE, for which the abundance fitness was -1.05 ± 0.094.

With GFTKEQQRLGIPKDPRQWTETHVRDWVMWAVNEFSLKGVDFQKFCMNGAALCALGKDCFLDLAPDFVGDILWEHLEILQKE, the abundance fitness was -0.013 ± 0.05.

Consider GFTKEQQRLGIPKDPRQWTETHVRDWVMWAVNEFSLKGVDFQKFCMNGAALCALGKDCFLNLAPDFVGDILWEHLEILQKE, for which the abundance fitness is -0.022 ± 0.073.

With GFTKEQQRLGIPKDPRMWTETHVRDWVMWAVNEFSLKGVDFQKFCMNGAALCALGKDCFLELAPDFVGDILWEHLEILQKE, the abundance fitness came out at 0.014 ± 0.06.

With GFTKEQQRLGILKDPRQWTETHVRDWVMWAVNEFSLKGVDFQKFCMNGAALCALGKDCFLELAPDFVGDILWEHLEILQKE, the abundance fitness was -0.567 ± 0.064.

For GFTKEQQRLGIPKDPRQWTETHVRDWVMWAVNEFSLKGVPFQKFCMNGAALCALGKDCFLELAPDFVGDILWEHLEILQKE, the abundance fitness is -0.343 ± 0.051.

(Values after the Human Domainome abundance scans (Beltran et al. 2025).)
